The source of these data is US20150329626A1.

For this assay, the target named is human VEGFR2 on cells (ECFC, HMVEC-d) (human) (UniProt P35968). As to the kind of experiment: cell-based or functional assay.
Sequence of human VEGFR2 on cells (ECFC, HMVEC-d) (human) (P35968 20-1356): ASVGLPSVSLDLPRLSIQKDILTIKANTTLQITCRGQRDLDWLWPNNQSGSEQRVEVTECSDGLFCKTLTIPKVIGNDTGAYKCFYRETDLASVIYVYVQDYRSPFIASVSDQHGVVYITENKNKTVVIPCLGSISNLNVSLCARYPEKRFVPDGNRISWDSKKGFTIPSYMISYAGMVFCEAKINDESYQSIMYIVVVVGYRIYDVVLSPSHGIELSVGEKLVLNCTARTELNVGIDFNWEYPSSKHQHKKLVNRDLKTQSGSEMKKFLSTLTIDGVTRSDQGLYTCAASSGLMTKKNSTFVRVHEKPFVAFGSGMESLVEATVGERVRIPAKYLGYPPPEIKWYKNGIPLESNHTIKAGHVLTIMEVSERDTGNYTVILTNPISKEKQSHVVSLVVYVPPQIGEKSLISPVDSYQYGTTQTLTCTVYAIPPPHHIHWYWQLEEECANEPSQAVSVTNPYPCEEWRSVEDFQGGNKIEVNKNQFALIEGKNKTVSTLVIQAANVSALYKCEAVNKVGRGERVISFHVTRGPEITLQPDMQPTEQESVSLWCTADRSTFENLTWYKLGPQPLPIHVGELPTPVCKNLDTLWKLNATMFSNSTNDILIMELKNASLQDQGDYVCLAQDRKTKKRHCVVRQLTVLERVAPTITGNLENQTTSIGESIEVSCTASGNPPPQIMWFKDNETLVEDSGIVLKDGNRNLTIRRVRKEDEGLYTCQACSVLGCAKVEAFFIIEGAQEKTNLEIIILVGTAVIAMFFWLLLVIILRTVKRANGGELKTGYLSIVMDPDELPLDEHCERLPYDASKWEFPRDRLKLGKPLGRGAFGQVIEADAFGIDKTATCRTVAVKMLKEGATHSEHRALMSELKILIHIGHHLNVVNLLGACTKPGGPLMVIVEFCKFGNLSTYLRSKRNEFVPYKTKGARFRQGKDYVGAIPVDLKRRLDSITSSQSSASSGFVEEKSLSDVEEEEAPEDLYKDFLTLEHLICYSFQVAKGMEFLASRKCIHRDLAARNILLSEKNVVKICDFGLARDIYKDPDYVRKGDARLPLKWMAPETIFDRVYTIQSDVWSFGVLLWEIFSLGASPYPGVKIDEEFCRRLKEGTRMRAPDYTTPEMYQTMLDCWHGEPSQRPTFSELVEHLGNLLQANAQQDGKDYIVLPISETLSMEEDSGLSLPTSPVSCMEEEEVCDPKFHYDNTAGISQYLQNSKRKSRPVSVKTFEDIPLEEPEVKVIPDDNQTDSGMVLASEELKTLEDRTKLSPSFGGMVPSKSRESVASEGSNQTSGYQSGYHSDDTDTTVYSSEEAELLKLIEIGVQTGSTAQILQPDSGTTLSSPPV

IMC-1121B (antibody) came in with an inhibition of human VEGF165-induced proliferation of HMVEC-d (IC50) of 31.4 nM.
